Square brackets hold non-standard residues; d marks the D form. Peptide text beside a SMILES is read from it. Nle = CCCC[C@H](N)C(=O)O
How the values were obtained:
[1] = tested on: DU-145 human prostate carcinoma; test: MTT assay, DU-145 cells
[2] = tested on: MDA-MB-231 human breast carcinoma; test: MTT assay, MDA-MB-231 cells
proteasome = conditions: Proc Natl Acad Sci USA 94:855-860, 1997; cited from earlier work
HL-60 tumor cells = conditions: proliferating HL-60 tumor cells; background art; cited from earlier work
[3] = tested on: A-549 human lung carcinoma; test: MTT assay, A-549 cells
[4] = A-549 cells, 10 μM LLnL with 0.1 to 1.0 μg/mL ranpirnase

With `CC(=O)N[C@@H](CC(=O)O)C(=O)N[C@@H](CCC(=O)O)C(=O)N[C@H](C(=O)N[C@H](C=O)CC(=O)O)C(C)C` [Ac-DEVD-cho, N-acetyl-L-aspartyl-L-glutamyl-L-valinyl-L-aspartal, reference compound] the “increase of viability of cells versus LLnL alone” value ([1]; DU-145 cells treated with LLnL, without ranpirnase, Ac-DEVD-cho 50 μpM) was “approximately 4 fold” and the “increase of viability of cells” value ([1]; DU-145 cells treated with ranpirnase and 25 μpM LLnL, Ac-DEVD-cho 50 μpM) was 2- to 3 fold.

In the case of `CSCC[C@@H](C=O)NC(=O)[C@H](CC(C)C)NC(=O)[C@H](CC(C)C)NC(C)=O` [LLM, N-acetyl-leucinyl-leucinyl-methioninal, reference compound] (Ac-Leu-Leu-Met-aldehyde), the “effect on growth and viability versus untreated controls” value ([2]; MDA-MB-231 cells, 25 μM LLM alone) is given as “no significant effect” and the “inhibition of the activity of proteasome” value (proteasome) is given as “does not significantly inhibit”.

In the case of `CCCC[C@@H](C=O)NC(=O)[C@H](CC(C)C)NC(=O)[C@H](CC(C)C)NC(C)=O` [LLnL, N-acetyl-leucinyl-leucinyl-norleucinal] (Ac-Leu-Leu-[Nle]-aldehyde), the cell cycle arrest (HL-60 tumor cells) is listed as “arrested the HL-60 cells in the G1 phase”.

With `CC(=O)N[C@@H](CC(C)C)C(=O)N[C@H](C(=O)N[C@H](C=O)Cc1ccccc1)C(C)C` [LVP, N-acetyl-leucinyl-valinyl-phenylalaninal, reference compound] the “augmentation of the anti-tumor activity of ranpirnase” value ([1]; DU-145 cell line, peptide aldehyde added to ranpirnase) was “augmented” and the “augmentation of the anti-tumor activity of ranpirnase” value ([3]; A-549 cell line, peptide aldehyde added to ranpirnase) was “augmented”.

In the case of `COc1cccc2c1C(=O)c1c(O)c3c(c(O)c1C2=O)C[C@@](O)(C(=O)CO)C[C@@H]3O[C@H]1C[C@H](N)[C@H](O)[C@H](C)O1` [doxorubicin, reference compound], the “effect of adding doxorubicin on cell growth or cell viability” value ([2]; MDA-MB-231 cells, ranpirnase plus 0.1 μg/mL doxorubicin plus 15 μM LLnL versus ranpirnase plus LLnL) is reported as “did not significantly decrease”.

B1: ranpirnase: USAN generic name of the pharmaceutical described in U.S. Pat. No. 5,559,212, known by the registered trademark ONCONASE (protein, UniProt P22069 1-104, looked up)
Protein P-30: QDWLTFQKKHITNTRDVDCDNIMSTNLFHCKDKNTFIYSRPEPVKAICKGIIASKNVLTTSEFYLSDCNVTSRPCKYKLKKSTNKFCVTCENQAPVHFVGVGSC
For B1, the “interaction of ranpirnase and LLnL” value ([1]; DU-145 cell line) was “synergistically”, the “anti-tumor activity of ranpirnase combined with LLnL versus each single agent (Newman-Keuls)” value ([1]; DU-145 cells) was “significantly greater” and the “interaction of ranpirnase with LLnL” value ([1]; DU-145 cells, all concentrations of ranpirnase, 10 to 25 μM LLnL) was “synergistic”. For the same molecule, the “ED50 value for ranpirnase” value ([1]; DU-145 cells, combined with 10 μM LLnL) was 1.231 µg/mL, the “ED50 value for ranpirnase” value ([1]; DU-145 cells, combined with 15 μM LLnL) was 0.001 µg/mL and the “ED50 value for ranpirnase” value ([1]; DU-145 cells, combined with 25 μM LLnL) was less than 0.001 µg/mL. For the same molecule, the “ED50 value for ranpirnase” value ([1]; DU-145 cells, ranpirnase alone) was 42.276 µg/mL, the “interaction of ranpirnase and LLnL” value ([3]; A-549 cell line) was “synergistically” and the “anti-tumor activity of ranpirnase combined with LLnL versus each single agent (Newman-Keuls)” value ([3]; A-549 cells) was “significantly greater”. For the same molecule, the “effect of the combination versus ranpirnase alone” value [3, 4] was “greater than the effect of ranpirnase alone”, the “interaction of ranpirnase and LLnL” value [3, 4] was “not synergistic” and the “interaction of ranpirnase and LLnL” value ([3]; A-549 cells, higher concentrations (15 to 35) μM of LLnL) was “synergistic”. For the same molecule, the “mean ED50 value for ranpirnase” value ([3]; A-549 cells, in combination with 10 μM LLnL) was 1.356 µg/mL, the “mean ED50 value for ranpirnase” value ([3]; A-549 cells, in combination with 15 μM LLnL) was 0.640 µg/mL and the “mean ED50 value for ranpirnase” value ([3]; A-549 cells, in combination with 25 μM LLnL) was 0.060 µg/mL. The “mean ED50 value for ranpirnase” value ([3]; A-549 cells, in combination with 35 μM LLnL) was “less than 0.001 μg/mL”, the “mean ED50 value for ranpirnase” value ([3]; A-549 cells, ranpirnase alone) was 3.944 µg/mL and the “interaction of ranpirnase and LLnL” value ([2]; MDA-MB-231 cell line) was “synergistically”. The “anti-tumor activity of ranpirnase combined with LLnL versus each single agent (Newman-Keuls)” value ([2]; MDA-MB-231 cells) was “significantly greater”, the “activity of combination of ranpirnase and LLM versus ranpirnase alone” value ([2]; MDA-MB-231 cells, 25 μM LLM) was “no significant difference” and the “decrease of mean ED50 value for ranpirnase” value ([2]; MDA-MB-231 cells, additional treatment with 25 μM LLM) was “approximately two-fold”. For the same molecule, the “decrease of mean ED50 value for ranpirnase versus ranpirnase alone” value ([2]; MDA-MB-231 cells, in combination with 0.1 μg/mL (approximately 0.17 μM) doxorubicin) was 2.2 fold, the “mean ED50 value for ranpirnase” value ([2]; MDA-MB-231 cells, in combination with 10 μM LLnL) was 0.037 µg/mL and the “mean ED50 value for ranpirnase” value ([2]; MDA-MB-231 cells, in combination with 15 μM LLnL) was 0.022 µg/mL. For the same molecule, the “mean ED50 value for ranpirnase” value ([2]; MDA-MB-231 cells, in combination with 25 μM LLnL) was 0.001 µg/mL, the “interaction of ranpirnase with LLnL” value ([2]; MDA-MB-231 cells, ranpirnase 0.1 to 10.0 μg/mL, LLnL 5 to 25 μM (particularly 10 to 25 μM)) was “synergistically” and the “mean ED50 value for ranpirnase” value ([2]; MDA-MB-231 cells, ranpirnase alone) was 1.434 µg/mL.
